Publication PMC10655381

Molecular target: recombinant glycerol dehydratase 2eGDHt αβγ heterotrimer from Klebsiella pneumoniae 2e (Klebsiella pneumoniae 2e) (UniProt Q59476)
Test: native gel or EMSA; Native-PAGE of purified recombinant 2eGDHt; heterotrimer to dimer of heterotrimers

stoichiometry N: 2
Substance: recombinant glycerol dehydratase 2eGDHt αβγ heterotrimer from Klebsiella pneumoniae 2e (from UniProt Q59476 1-555; A6TE99 1-194; Q59475 1-141) (complex)
